Results taken from patent publication US20130189284A1 (TECHNION RESEARCH AND DEVELOPMENT FOUNDATION, published 2013).

B1: G3H8 Fab (Anti HLA-DR4/GAD555-567 Fab) (Fab, V domains shown)
VH: QVQLVQSGAEVKKPGASVKVSCKASGYTFTTYGISWVRQAPGQGLEWMGWISAYNGHTNYAQMLQGRVTMTTDTSTSTAYMELRGLRSDDTAVYYCAREAYASYGSGSYWTDYWGQGTLVTVSS
VL: ETTLTQSPATLSVSPGERVTLSCRASQSVGSNLAWYQQKFGQAPRLLIYDASTRATGIPARFSGSGSGTEFTLTISRLEPEDFAVYYCHQYGSSPRTFGQGTKVDIKR
notes: also called Fab G3H8; G3H8 TCRL Fab
B2: G1H12 Fab (Anti HLA-DR4/GAD555-567 Fab) (Fab, V domains shown)
VH: QVQLVQSGAEVKKPGASVKVSCKASGYTFTSYGISWVRQAPGQGLEWMGGIIPIFGTANYAQKFQGRVTITADKSTSTAYMELSSLRSEDTAVYYCARDPQSYYYDSSGFDYWGQGTLVTVSS
VL: QSVLTQPPSVSAAPGQKVTISCSGSSSNIGNNYVSWYQQLPGTAPKLLIYDNNKRPSGIPDRFSGSKSGTSATLGITGLQTGDEADYYCGTWDSSLSVWVFGGGTKLTVLG

Experiments:
[1] = target: DR4/HA307-319 complex presented on cells (human, UniProt P01903 26-254; P01911 30-266); assay: flow cytometry on peptide-loaded Preiss cells
[2] = target: HA307-319 peptide ([…]), alone; assay: ELISA, immobilized peptide

| Binder | binding result [1] | binding result [2] |
| --- | --- | --- |
| B1 | no binding (tested: 1-5 µg of specific Fab per 10^6 cells) | no binding (tested: 5 µg/ml soluble purified Fab) |
| B2 | no binding (tested: 1-5 µg of specific Fab per 10^6 cells) | no binding (tested: 5 µg/ml soluble purified Fab) |
